The target of experiment [1] is T1, transketolase (TKT) from Clostridium leptum, TKT peptide 8 peptide on HLA-DQA1*05:01 / HLA-DQB1*03:02 (human).
T1 peptide: GHSVEALYCILADRG
In words: activation reporter or marker.

Experiment [2] deals with T2, insulin B chain peptide on HLA-DQA1*05:01 / HLA-DQB1*03:02 (human).
T2 peptide: SHLVEALYLVCGERG
Put plainly: activation reporter or marker.

B1: GSE.166H9 (TCR)
alpha TRAV3 TRAJ21 CDR3: CAVMYNFNKFYF
beta TRBV12-3 TRBJ2-5 CDR3: CASSLGGRETQYF
For the molecule B1, the binding result in experiment [1] and in experiment [2] was “recognises” each time.

The values are drawn from article doi:10.1101/2022.05.11.22274678 (2022).
